What all share (conditions): both partners purified
For assay [1], the target named is T1, Proliferating Cell Nuclear Antigen (PCNA), human (human, homotrimeric ring; GlySerHis tag remnant before Met1 left out; 2H/15N(/13C) labelled for NMR, natural abundance for ITC). As to the kind of experiment: ITC; PCNA (11.2–13.4 µM protomers) in the cell titrated with peptide (117 µM p21^20, 363 p21^12); PBS pH 7.0, 35°C; single set of identical sites.
For assay [2], the target named is T1, Proliferating Cell Nuclear Antigen …. The experiment in a line: ITC; PCNA (11.2–13.4 µM protomers) in the cell titrated with peptide (117 µM p21^20, 363 p21^12); PBS pH 7.0, 30°C; single set of identical sites. For orientation: ITC needs no label: the signal is the heat of the interaction.
For assay [3], the target named is Proliferating Cell Nuclear Antigen (PCNA), human (human). The experiment in a line: NMR titration; 280 µM U-2H,15N-PCNA titrated with a 7.5 mM stock of ING1^22 up to a 7.8-fold molar excess; CSP of H44 fitted to one set of sites; PBS pH 7.0, 35°C.
Sequence of Proliferating Cell Nuclear Antigen (PCNA), human (human) (chain, as listed by the source): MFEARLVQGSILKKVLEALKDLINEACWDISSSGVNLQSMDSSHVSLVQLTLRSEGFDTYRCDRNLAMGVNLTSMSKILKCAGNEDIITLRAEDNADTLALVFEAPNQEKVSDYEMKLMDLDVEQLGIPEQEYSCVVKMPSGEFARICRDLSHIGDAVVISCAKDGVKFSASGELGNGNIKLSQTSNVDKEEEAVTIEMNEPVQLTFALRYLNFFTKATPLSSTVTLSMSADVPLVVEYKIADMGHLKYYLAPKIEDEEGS

No end group written: not given here.

T1 sequence (chain, as listed by the source): as above

B1: p21 fragment 141-152 (p21^12), shorter PIP-box peptide of the Cyclin-dependent kinase inhibitor 1 (peptide)
peptide: KRRQTSMTDFYH
notes: source: lyophilized peptide
With B1, in assay [1], binding was put at a Kd of 1.1 µM. In assay [2], the Kd (commonly a measure of binding affinity in units of concentration) came to 0.64 µM and the “stoichiometry N” value is 1 p21 ligand per PCNA protomer.

B2: ING1 PIP-box fragment 4-25 (ING1^22) (peptide)
chain: PANGEQLHLVNYVEDTLDSIES
modifications: not fully specified
On to B2, for which, in assay [3], the “KD with CSPmax set equal to the CSP of PCNA bound to p21^20” value came to 12500 ± 500 µM and binding was put at a Kd of 2000 ± 700 µM.

Values taken from article PMC3491057, “Proliferating Cell Nuclear Antigen (PCNA) Interactions in Solution Studied by NMR” (PLoS ONE, 2012).
